Four molecules from patent US20180105569A1 (INDIANA UNIVERSITY RESEARCH AND TECHNOLOGY, published 2018) can be followed below.

T1: GIP receptor (UniProt P48546 22-466, limits assumed)
T1 sequence (looked up): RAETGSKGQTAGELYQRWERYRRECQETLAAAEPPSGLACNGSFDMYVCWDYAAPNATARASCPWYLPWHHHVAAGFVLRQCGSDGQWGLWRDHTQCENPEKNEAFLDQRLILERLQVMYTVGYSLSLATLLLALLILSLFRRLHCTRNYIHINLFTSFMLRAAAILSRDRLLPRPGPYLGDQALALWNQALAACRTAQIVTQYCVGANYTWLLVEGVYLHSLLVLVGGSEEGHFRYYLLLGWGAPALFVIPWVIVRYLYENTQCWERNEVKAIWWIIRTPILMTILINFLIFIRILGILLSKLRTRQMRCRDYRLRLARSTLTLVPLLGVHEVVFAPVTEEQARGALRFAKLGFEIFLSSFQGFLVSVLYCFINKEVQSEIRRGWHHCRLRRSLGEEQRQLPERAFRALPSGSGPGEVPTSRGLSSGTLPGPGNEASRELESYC

B1: peptide of SEQ ID NO: 142 (peptide)
peptide: Ac-[dY]ALGTFTSDK([γGlu-Palmitoyl])SKYLDERAAQDFVQWLLEGGPSSGAPPPS-NH2
B2: peptide of SEQ ID NO: 156 (peptide)
peptide: [4‑HPA]AQGTFTSDK([γGlu-C16 acyl])SKYLDERAAQDFVQWLLEGGPSSGAPPPS-NH2
B3: peptide of SEQ ID NO: 144 (peptide)
peptide: Ac-[dY]AEGTFTSDK([γGlu-Palmitoyl])SKYLDERAAQDFVQWLLEAGPSSGAPPPS-NH2
SMILES: CCCCCCCCCCCCCCCC(=O)N[C@@H](CCC(=O)NCCCC[C@H](NC(=O)[C@H](CC(=O)O)NC(=O)[C@H](CO)NC(=O)[C@@H](NC(=O)[C@H](Cc1ccccc1)NC(=O)[C@@H](NC(=O)CNC(=O)[C@H](CCC(=O)O)NC(=O)[C@H](C)NC(=O)[C@@H](Cc1ccc(O)cc1)NC(C)=O)[C@@H](C)O)[C@@H](C)O)C(=O)N[C@@H](CO)C(=O)N[C@@H](CCCCN)C(=O)N[C@@H](Cc1ccc(O)cc1)C(=O)N[C@@H](CC(C)C)C(=O)N[C@@H](CC(=O)O)C(=O)N[C@@H](CCC(=O)O)C(=O)N[C@@H](CCCNC(=N)N)C(=O)N[C@@H](C)C(=O)N[C@@H](C)C(=O)N[C@@H](CCC(N)=O)C(=O)N[C@@H](CC(=O)O)C(=O)N[C@@H](Cc1ccccc1)C(=O)N[C@H](C(=O)N[C@@H](CCC(N)=O)C(=O)N[C@@H](Cc1c[nH]c2ccccc12)C(=O)N[C@@H](CC(C)C)C(=O)N[C@@H](CC(C)C)C(=O)N[C@@H](CCC(=O)O)C(=O)N[C@@H](C)C(=O)NCC(=O)N1CCC[C@H]1C(=O)N[C@@H](CO)C(=O)N[C@@H](CO)C(=O)NCC(=O)N[C@@H](C)C(=O)N1CCC[C@H]1C(=O)N1CCC[C@H]1C(=O)N1CCC[C@H]1C(=O)N[C@@H](CO)C(N)=O)C(C)C)C(=O)O
B4: peptide of SEQ ID NO: 148 (peptide)
peptide: Ac-[dH]AEGTFTSDK([γGlu-Palmitoyl])SKYLDERAAQDFVQWLLEGGPSSGAPPPS-NH2
SMILES: CCCCCCCCCCCCCCCC(=O)N[C@@H](CCC(=O)NCCCC[C@H](NC(=O)[C@H](CC(=O)O)NC(=O)[C@H](CO)NC(=O)[C@@H](NC(=O)[C@H](Cc1ccccc1)NC(=O)[C@@H](NC(=O)CNC(=O)[C@H](CCC(=O)O)NC(=O)[C@H](C)NC(=O)[C@@H](Cc1c[nH]cn1)NC(C)=O)[C@@H](C)O)[C@@H](C)O)C(=O)N[C@@H](CO)C(=O)N[C@@H](CCCCN)C(=O)N[C@@H](Cc1ccc(O)cc1)C(=O)N[C@@H](CC(C)C)C(=O)N[C@@H](CC(=O)O)C(=O)N[C@@H](CCC(=O)O)C(=O)N[C@@H](CCCNC(=N)N)C(=O)N[C@@H](C)C(=O)N[C@@H](C)C(=O)N[C@@H](CCC(N)=O)C(=O)N[C@@H](CC(=O)O)C(=O)N[C@@H](Cc1ccccc1)C(=O)N[C@H](C(=O)N[C@@H](CCC(N)=O)C(=O)N[C@@H](Cc1c[nH]c2ccccc12)C(=O)N[C@@H](CC(C)C)C(=O)N[C@@H](CC(C)C)C(=O)N[C@@H](CCC(=O)O)C(=O)NCC(=O)NCC(=O)N1CCC[C@H]1C(=O)N[C@@H](CO)C(=O)N[C@@H](CO)C(=O)NCC(=O)N[C@@H](C)C(=O)N1CCC[C@H]1C(=O)N1CCC[C@H]1C(=O)N1CCC[C@H]1C(=O)N[C@@H](CO)C(N)=O)C(C)C)C(=O)O

Numbered stars: 1 amine (or outer) side, 2 acyl side, 3 side chain; on linkers, the order of the positions; unused ones are H or OH. Square brackets hold non-standard residues; d marks the D form. Side chains are listed from the residue outwards. Ends that are not written are not given here. * marks the point of attachment. 4‑HPA = 4-hydroxyphenylacetic acid, O=C(Cc1ccc(O[*:3])cc1)[*:2]; C16 acyl = C16 fatty acyl group bound via a gamma-Glu spacer; γGlu = O=C(O)[C@H](CCC(=O)[*:2])N[*:1]; Palmitoyl = CCCCCCCCCCCCCCCC(=O)*

One experiment deals with T1, GIP receptor. Nature of the experiment: cell-based or functional assay.
Consider B1, for which it took 2 pM to reach a half-maximal effect (EC50 at GIP Receptor (cAMP luciferase reporter, HEK293)). That is a picomolar value.

With B2, the “EC50 at GIP Receptor (cAMP luciferase reporter, HEK293)” value is 42 pM.

Consider B3, for which the “EC50 at GIP Receptor (cAMP luciferase reporter, HEK293)” value came to 3 pM. Against the preceding molecule, the EC50 at GIP Receptor (cAMP luciferase reporter, HEK293) is about 14-fold lower.

Another experiment has as its target GLP-1 receptor (UniProt P43220 24-463, limits assumed). Nature of the experiment: cell-based or functional assay.
Consider B1, for which a half-maximal response (EC50 at GLP-1 Receptor (cAMP luciferase reporter, HEK293)) required 5 pM.

Regarding B2, the concentration giving a half-maximal response (EC50) at GLP-1 Receptor (cAMP luciferase reporter, HEK293) turned out to be 2 pM.

With B3, the “EC50 at GLP-1 Receptor (cAMP luciferase reporter, HEK293)” value amounted to 17 pM.

Consider B4, for which a half-maximal response (EC50 at GLP-1 Receptor (cAMP luciferase reporter, HEK293)) required 2 pM.

The target in another experiment is glucagon receptor (UniProt P47871 26-477, limits assumed). The experiment in a line: cell-based or functional assay.
Chain of glucagon receptor (P47871 26-477 limits assumed): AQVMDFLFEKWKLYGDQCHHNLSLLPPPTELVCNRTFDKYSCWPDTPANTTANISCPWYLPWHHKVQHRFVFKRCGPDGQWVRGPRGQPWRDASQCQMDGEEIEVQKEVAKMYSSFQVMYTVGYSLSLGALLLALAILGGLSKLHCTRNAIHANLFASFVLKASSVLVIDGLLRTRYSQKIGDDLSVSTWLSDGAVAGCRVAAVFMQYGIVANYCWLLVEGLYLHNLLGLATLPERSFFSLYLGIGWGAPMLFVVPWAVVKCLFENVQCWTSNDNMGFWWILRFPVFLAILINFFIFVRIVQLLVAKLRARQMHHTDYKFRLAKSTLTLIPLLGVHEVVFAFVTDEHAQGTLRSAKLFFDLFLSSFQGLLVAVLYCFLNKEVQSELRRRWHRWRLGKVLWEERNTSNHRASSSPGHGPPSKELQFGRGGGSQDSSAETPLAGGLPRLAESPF
Regarding B1, the “EC50 at Glucagon Receptor (cAMP luciferase reporter, HEK293)” value (shortened to “EC50 at Glucagon Receptor”) was 103 pM.

B2: a half-maximal effect (EC50 at Glucagon Receptor (cAMP luciferase reporter, HEK293)) was put at 11 pM. This EC50 at Glucagon Receptor (cAMP luciferase reporter, HEK293) is about 9.4-fold lower than that of the molecule before.

Turning to B3, the “EC50 at Glucagon Receptor” value amounted to 1300 pM. This EC50 at Glucagon Receptor (cAMP luciferase reporter, HEK293) is about 120-fold higher than that of the molecule before.

Turning to B4, the “EC50 at Glucagon Receptor” value was determined as 178 pM.

For orientation: EC50 means the concentration at which the effect is half-maximal. Higher therefore signals a less potent agent.
